Source: US20090075929

Assays:
[1] = test system: GST-MADD1041A (T1041A)
[2] = test system: GST-wtMADD (bacterially expressed, purified)
[3] = test system: GST-MADD70A (S70A)
[4] = test system: GST-MADD173A (T173A)

## recombinant Akt (rAkt; protein kinase B)
[1]
  in vitro phosphorylation (32P autoradiography): The phosphorylation levels of MADD mutants including MADD70A, MADD173A and MADD1041A were reduced or absent
[2]
  in vitro phosphorylation (32P autoradiography): recombinant wild-type MADD (wtMADD) was phosphorylated by Akt
[3]
  in vitro phosphorylation (32P autoradiography): The phosphorylation levels of MADD mutants including MADD70A, MADD173A and MADD1041A were reduced or absent
[4]
  in vitro phosphorylation (32P autoradiography): The phosphorylation levels of MADD mutants including MADD70A, MADD173A and MADD1041A were reduced or absent
